The values below come from patent publication US20240101687A1.

In assay [1] the target is human IGF1R on cells (human) (UniProt P08069). As to the kind of experiment: FACS on BT474 cells (FL1-H), anti-human FITC; MFI of 2nd Ab only 1.93, untreated 1.8.
For assay [2] the target is unchanged. As to the kind of experiment: FACS on MCF-7 cells (FL1-H), anti-human FITC; MFI of 2nd Ab only 4.53, untreated 2.51.
The target is the same in assay [3]. As to the kind of experiment: FACS on JIMT-1 cells (FL1-H), anti-human FITC; MFI of 2nd Ab only 1.89, untreated 1.36.

Sequence of IMC-A12 (antibody) (VH): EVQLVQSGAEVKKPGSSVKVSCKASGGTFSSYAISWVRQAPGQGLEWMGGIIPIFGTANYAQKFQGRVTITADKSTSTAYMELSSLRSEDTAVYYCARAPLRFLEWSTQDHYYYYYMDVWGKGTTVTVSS
Sequence of IMC-A12 (antibody) (VL): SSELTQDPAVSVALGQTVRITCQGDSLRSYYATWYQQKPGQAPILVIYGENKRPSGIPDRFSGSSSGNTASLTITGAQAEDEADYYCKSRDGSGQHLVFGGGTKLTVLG

Regarding IMC-A12 (antibody), the MFI turned out to be 18.3 in assay [1], 40.1 in assay [2] and 23 in assay [3].
